Experimental findings from patent US20240294650A1 (Alector, published 2024) are described below.

The target of assay [1] is T1, mouse MerTK overexpressed on CHO cells (mouse, UniProt Q60805 19-994).
T1 construct: whole, on cells; also called CHO-muMerTK OE
T1 sequence (looked up): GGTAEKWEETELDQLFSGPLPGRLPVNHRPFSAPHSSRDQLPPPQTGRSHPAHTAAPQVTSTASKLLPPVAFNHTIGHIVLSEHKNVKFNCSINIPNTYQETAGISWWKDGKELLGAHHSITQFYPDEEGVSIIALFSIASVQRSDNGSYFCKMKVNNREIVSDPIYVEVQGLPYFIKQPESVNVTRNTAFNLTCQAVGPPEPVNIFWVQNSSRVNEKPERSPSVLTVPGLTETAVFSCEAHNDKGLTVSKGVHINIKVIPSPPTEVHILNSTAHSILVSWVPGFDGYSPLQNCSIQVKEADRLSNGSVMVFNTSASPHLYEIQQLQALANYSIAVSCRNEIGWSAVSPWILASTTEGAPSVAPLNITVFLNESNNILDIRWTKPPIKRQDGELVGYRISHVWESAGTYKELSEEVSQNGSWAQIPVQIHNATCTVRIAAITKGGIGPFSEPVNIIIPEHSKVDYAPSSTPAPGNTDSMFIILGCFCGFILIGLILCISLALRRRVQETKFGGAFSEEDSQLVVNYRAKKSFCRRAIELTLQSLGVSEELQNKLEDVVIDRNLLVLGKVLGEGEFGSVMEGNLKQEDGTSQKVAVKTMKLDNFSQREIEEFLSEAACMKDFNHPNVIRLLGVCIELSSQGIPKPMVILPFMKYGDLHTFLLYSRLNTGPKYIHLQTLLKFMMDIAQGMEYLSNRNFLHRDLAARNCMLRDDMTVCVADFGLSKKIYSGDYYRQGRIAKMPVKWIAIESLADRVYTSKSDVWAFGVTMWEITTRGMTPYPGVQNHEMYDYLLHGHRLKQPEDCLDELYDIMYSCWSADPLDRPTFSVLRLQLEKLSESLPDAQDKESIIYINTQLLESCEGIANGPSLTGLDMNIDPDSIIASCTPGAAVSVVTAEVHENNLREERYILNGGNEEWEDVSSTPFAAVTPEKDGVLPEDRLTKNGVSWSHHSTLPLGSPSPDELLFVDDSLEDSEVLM
Kind of assay: FACS, CHO-muMerTK OE cells, 10 ug/ml. Here is the method:
To determine whether recombinant anti-human MerTK antibodies of the present disclosure bind to human MerTK endogenously expressed on SK-MEL-5 cells and CHO cells overexpressing mouse MerTK (CHO-muMerTK OE cells), as compared to A375 and parental CHO cells as negative controls, the following experiments were performed. SK-MEL-5 cells, A375 cells, CHO-muMerTK OE cells, and CHO parental cells were plated at 100,000 cells/well. Anti-MerTK antibodies were added to the cells at 10 μg/ml. After 60 minutes on ice, cells were washed and then stained with PE-conjugated goat anti-human IgG antibody (Southern Biotech Cat #2040-09, Birmingham, AL) in the presence of Fc block solution on ice for 30 minutes, and then washed twice with cold FACS buffer (2% FBS in PBS). Mouse anti-human MerTK-PE conjugated (Biolegend, Clone 590H11G1E3) or anti-mouse MerTK-PE conjugated (ThermoFisher, Clone DS5MMER) antibodies were used as positive controls. Stained cells were acquired on a BD FACS Canto II cytometer and the mean fluorescence intensity (MFI) was calculated with FlowJo.
In general terms: A flow cytometer gives signals particle by particle.

The target in assay [2] is T2, Full Axl (ECD domain of human Axl) (human, UniProt P30530 26-451).
T2 construct: also called human Axl ECD
T2 sequence: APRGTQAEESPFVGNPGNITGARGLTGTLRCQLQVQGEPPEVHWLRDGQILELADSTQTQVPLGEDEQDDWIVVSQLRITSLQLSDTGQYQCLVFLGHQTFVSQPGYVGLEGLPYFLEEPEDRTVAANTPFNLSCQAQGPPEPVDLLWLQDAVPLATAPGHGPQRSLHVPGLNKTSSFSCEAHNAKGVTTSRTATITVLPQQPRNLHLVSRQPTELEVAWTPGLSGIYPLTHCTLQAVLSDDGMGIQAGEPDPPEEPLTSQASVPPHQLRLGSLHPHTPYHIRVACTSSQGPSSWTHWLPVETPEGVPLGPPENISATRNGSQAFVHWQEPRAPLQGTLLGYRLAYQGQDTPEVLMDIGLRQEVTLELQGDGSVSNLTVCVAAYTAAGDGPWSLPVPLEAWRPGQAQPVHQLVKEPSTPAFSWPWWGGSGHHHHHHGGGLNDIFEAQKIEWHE
The experiment in a line: SPR (data not shown). On the procedure:
Binding of anti-MerTK antibodies of the present disclosure to these domain-swapped chimera or deletion mutants was tested by Surface Plasmon Resonance (SPR) using Carterra LSA. Purified anti-MerTK antibodies were immobilized in duplicate on a HC30M chip (Carterra) by amine coupling, following the manufacturer's instructions (described previously).
Supernatants containing the constructs were diluted 1:1 with running buffer containing 0.5 mg/mL BSA (HBS-TE, Carterra; BSA, Sigma) and injected over the immobilized antibodies. The surface was regenerated with 10 mM Glycine pH2.0 after each construct injection. Sensorgrams were analyzed using Carterra Epitope software to identify patterns of construct binding. Loss of binding to MerTK constructs with domains deleted or swapped in from Axl and/or gain of binding to Axl constructs with MerTK domains swapped in were evaluated. Data from these studies were used to construct a domain binding map for anti-MerTK antibodies and their binding to various domains of human MerTK.

B1: MTK-224 (antibody, human IgG1, V domains shown)
VH: QVQLQQPGAELVKPGASVKVSCKASGYTFTSYWMHWVKQRPGQGLEWIGRIHPFDSDTNYNQKFKGKATLTVDKSSSTAYMQLSSLTSEDSAVYYCSIAGFAYWGQGTLVTVSA
VL: DIVMTQSPATLSVTPGDRVSLSCRASQIISDYLNWYQQKSHESPRLLIKYASQSISGIPSRFSGSGSGSDFTLSINSVEPEDVGVYYCQNGHSFPLTFGAGTKLELK
On to B1, for which, in assay [1], the MFI was found to be 616 MFI. For the same molecule, in assay [2], the binding result is on record as “no binding”.

B2: MTK-209 (antibody, human IgG1, V domains shown)
VH: QVQLQQPGAELVKPGASVKVSCKASGYTFTNYWIHWVKQRPGQGLEWIGRIHPFDSEPNYNQKFKGKATLTVDKSSSTAYMHLTSLTSEDSAVYYCALASFAYWGQGTLVTVSA
VL: ETTVTQSPASLSMAMGEKATIRCITSTDIDDKMNWYQQKPGKPPKLLISAGNTLRPGVPSRFSSSGYGTDFVLTVENMLSEDVADYYCLQGGALPLTFGSGTKLEIK
In assay [1], B2 had an MFI of 1220 MFI. The binding result in assay [2] was “no binding”.

B3: MTK-221 (antibody, human IgG1, V domains shown)
VH: QVTLKESGPGMLQSSQTLSLTCSFSGFSLSTSGMGVSWIRQPSGKGLEWLAHIYWDDDKRYNTSLQSRLTISKDTSRNQVFLKITSVDTADTATYFCGRLGAYSAFPYYFDYWGQGTTLTVSS
VL: DIQMTQSPSSLSASLGGKVTITCKASQDIHKHIAWYQHKPGKGPRLLIHYTSTLQPGIPSRFSGSGSGRDYSFSISNLEPEDLATYYCLQYDNLWTFGGGTKLEIK
Regarding B3, the MFI in assay [1] was found to be 374 MFI. In assay [2], the binding result is recorded as “no binding”.

B4: MTK-231 (antibody, human IgG1, V domains shown)
VH: DVQLQESGPGLVKPSQSLSLTCSVTGYSITSGYYWNWIRQFPGNKLEWMGYISYDGTYNYHPSLKNRISITRDTSKNQFFLTLNSVTTEDTATFYCTRGGGYWGQGTSVTVSS
VL: DVVMTQTPLSLPVSLGDQASISCRSSQSLVHSDGNTYLHWYLQKPGQSPKLLIYKVSNRFSGVPDRFSGSGSGTDFTLKISRLEAEDLGIYFCSQTTHIPLTFGSGTKLEIK
As for B4, the MFI in assay [1] came out at 594 MFI. Besides, the binding result in assay [2] is given as “no binding”.

B5: MTK-202 (antibody, human IgG1, V domains shown)
VH: EVQLVESGGGLVKPGGSLKLSCAASGFTFSDFGMHWVRQVPEKGLEWVAFISGGSNTIYYTDTVKGRFTISRDNAKNTLFLQMTSLRSEDTAMYYCVRNGNSFAYWGQGTLVTVSA
VL: NIMMTQSPSSLAVSAGEKVTMNCKSSQSVLYSSNQKNYLAWYQQKPGQSPKLLIYWASTRESGVPDRFTGSGSGTDFTLTISNIQAEDLAIYYCHQYFFSWTFGGGTKLEIK
Regarding B5, the MFI in assay [1] was 4410 MFI. Further, the binding result in assay [2] is listed as “no binding”.

B6: MTK-204 (antibody, human IgG1, V domains shown)
VH: EVQLVESGGGLVKPGGSLKLSCAASGFTFSDYGMHWVRQAPEKGLEWVAYISSGTSTIYYEDTVKGRFTISRDNAKNTLFLQMTSLRSEDTAMYYCARGGLLFDYWGQGTTLTVSS
VL: NIMMTQSPSSLAVSAGEKVTMSCKSSQSVLYSSNQKNYLAWYQQKPGQSPKLLIQWASTRESGVPDRFTGSGSETDFTLTIRSVQAEDLAVYYCHQYFSSWTFGGGTKLEIK
For the molecule B6, the MFI in assay [1] turned out to be 713 MFI. Further, the binding result in assay [2] was “no binding”.

B7: MTK-219 (antibody, human IgG1, V domains shown)
VH: QVQLQQSGADLMKPGASVKLSCKATGNTFTGYWIEWVKQRPGHGLEWIGEILTGSGSTNYNERFKGKATFTADTSSNTAYMQLSSLTTEDSAIYYCAGSYFTNSWFPYWGQGSLVTVSA
VL: DIVLTQSPASLAVSLGQRATISCRASESVDSYGNSFMHWYQQKPGQPPKLLIYRAYTLESGIPARFSGSGSRTDFTLTINPVEADDVATYYCQQSNEDPRTFGGGTKLEIK
Turning to B7, the MFI in assay [1] is 11400 MFI. For the same molecule, the binding result in assay [2] is given as “no binding”.

B8: MTK-222 (antibody, human IgG1, V domains shown)
VH: QVQLQQSGADLMKPGASVKLSCKATGYTFTGYWIEWVKQRPGHGLEWIGEILTGSGSSNYNEKFKGKATFTADSSSNTAFMQLSSLTTEDSAIYYCAGSYYSNSWFPYWGQGSLVTVSA
VL: DIVLTQSPVSLAVSLGQRATISCRASESVDSYGSSFMHWYQQKPGQPPKLLIYRASSLESGIPARFSGSGSRTDFTLTINPVETDDVATYYCQQSNEDPRTFGGGTKLEIK
B8 came in with an MFI in assay [1] of 4760 MFI. The binding result in assay [2] is on record as “no binding”.

B9: MTK-203 (antibody, human IgG1, V domains shown)
VH: QVQLQQPGAELVKPGASVKVSCKASGYTFTNYWMHWVKQRPGQGLEWIGRIHPFDTETNDNQKFKGKATLTVDKSSSTAYMQLSSLTSEDSAVYYCVIPANGGFAYWGQGTLVTVSA
VL: ETTVTQSPASLSVATGEKVTIRCITSTDIGDDMNWYQQKPGEPPKVLISEGNSLRPGVPSRFSSSGYGTDFVFTIENTLSEDVADYFCLQSDNLPLTFGSGTKLEIK
The molecule B9 came in with an MFI in assay [1] of 2080 MFI. Besides, the binding result in assay [2] is “no binding”.

B10: MTK-212 (antibody, human IgG1, V domains shown)
VH: QVQLQQSGPELVKPGASVKISCKASGYAFSSSWVNWVKQRPGKGLEWIGRIYPGDGDSNYNGNFKGKATLTADKSSNTAYLQLSSLTSEDSAVYFCARKSHFIYYTLDYWGQGTPVTVSS
VL: DIVMTQSHKFKSTSVGDRVSIACKASQDVGTSVAWYQQKPGKSPKLLIYWASSRHTGVPDRFTGSGSGTDFTLTISNVQSEDLTDYFCQQYSTYPYTFGGGTKLEIK
In turn, B10 yielded an MFI in assay [1] of 12800 MFI. In addition, the binding result in assay [2] was “no binding”.

B11: MTK-225 (antibody, human IgG1, V domains shown)
VH: EVQLQQSGPELVKPGASVKIFCKASGYTFTAYNMDWVKQSHGKSLEWIGDINPNNGGTIYNQKFKGKATLTVDKSSSTAYMELRSLTSEDTAVYYCARRRRYGNTYYWYFDVWGTGTTVTVSS
VL: DIQMTQSPASLSVSVGETVTITCRASENIYSSLAWYQQKQGKSPQLLVYAATNLADGVPSRFSGSGSGTQFYLKINGLQSEDFGSYYCQHFWGTSYTFGGGTKLEIK
In assay [1], B11 had an MFI of 285 MFI. In addition, the binding result in assay [2] is reported as “no binding”.

B12: MTK-210 (antibody, human IgG1, V domains shown)
VH: QVQLQQSGPELVKPGASVKISCKASDYEFSRSWMNWVKQRPGKGLEWIGRIYPGDGDTNYNGKFKGKATLTADKSSNTAYMQLNSLTSEDSAVYFCARKGGYYYSISNYFDYWGQGTTLTVSS
VL: QIVLTQSPAIMSASPGVKVTMTCSASSSVSYMHWYQQKPGSSPRLLIYDTSNLASGVPVRFSGSGSGTSYSLTISRMEAEDAATYYCQQWSSYPPYTFGGGTKLEIK
B12: in assay [1], the MFI stood at 252 MFI. Moreover, the binding result in assay [2] is “no binding”.
